Measured values published in article PMC12886537, “Dual-mode aptamer-driven biosensing platform for ultrasensitive and mutation-resilient detection of the SARS-CoV-2 nucleocapsid protein”.

Key:
[1] = biological target: T1, SARS-CoV-2 nucleocapsid (N) protein (SARS-CoV-2 (original/prototype), UniProt P0DTC9 1-419); assay: SPR; single concentration; conditions: protein: recombinant; tags: His; chain copies: 2
SARS-CoV N protein = SARS-CoV N protein (SARS-CoV, UniProt P59595 1-422); conditions: protein: commercial, chain copies: 2
[2] = biological target: T1, SARS-CoV-2 nucleocapsid (N) protein; assay: ELONA; conditions: protein: recombinant; tags: His; chain copies: 2; label: biotin (ELONA); 5'-FAM (flow cytometry, confocal)

B1: NP1 (ssDNA)
DNA: TTTTTAACACGACCTCACTGTGCCGGCCACAGCTCACCACAGTGGGCCCATG
B1: binds [1].

B2: NP14b (structured_DNA)
DNA: TTTTTAACACGACTCTCCTGTGGCCAGCGAACTGATGTGCCATG
B2: binds (SARS-CoV N protein).

B3: NP14 (structured_DNA)
DNA: TTTTTAACACGACTCTCCTGTGGCCAGCGAACTGATTGCCTGTCGTGCCATG
For B3, the Kd [2] was 3.68 nM and the Kd (SARS-CoV N protein; label: biotin (ELONA), 5'-FAM (flow cytometry, confocal)) was 3.45 nM.

B4: NP11 (ssDNA)
DNA: TTTTTAAGCCCACTTTTCTGTGCCGGGCACAGCATGGGCTTGTCGTGCCATG
B4: binds [1].

B5: NP14a (structured_DNA)
DNA: TTTTTAACACGACTCTCCTGTGGCATTGCCTGTCGTGCCATG
B5: binds (SARS-CoV N protein).
